This note sets out measurements from the supplement of paper PMC7125110.

± gives the standard error. Fewer inactive variants are shown than the library holds.

The labels stand for the following.
B1: glmS ribozyme (parent)
chain: AUAAAAGCGCCAGAACUACAGAAAUGUAGUUGACGAGGAGGAGGUUUAUCGAAUUUUCGGCGGAUGCCUCCAAA

What all share (conditions): with glucosamine-6-phosphate
In data set [1] the parent is B1. As to the kind of experiment: self-cleavage kobs at 640 uM GlcN6P; higher = faster cleavage; RNA array. Summed up: (§1)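 Barcoded ribozyme variants, transcribed in situ by E. coli RNA polymerase on sequenced MiSeq chips, were followed via a hybridised Cy3 probe at 37 °C. Glucosamine-6-phosphate ranged from 40 μM to 10 mM in HEPES/KCl/Mg(OAc)2 buffer. kobs came from decay fits to per-tile medians, and kcat and KM from weighted Michaelis–Menten fits.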

In data set [2] the parent is B1. As to the kind of experiment: self-cleavage kobs at 2500 uM GlcN6P; higher = faster cleavage; RNA array. The method in brief:
as §1

The variants in data set [3] derive from B1. As to the kind of experiment: self-cleavage kobs at 10000 uM GlcN6P; higher = faster cleavage; RNA array. Summed up: as §1

Regarding A33C A52C, the “self-cleavage kobs at 640 uM GlcN6P” value in the data set with glucosamine-6-phosphate [1] is under 1e-05 s⁻¹. In addition, the “self-cleavage kobs at 2500 uM GlcN6P” value with glucosamine-6-phosphate [2] was under 1e-05 s⁻¹.

Take G9U A36C A39G C70U: the “self-cleavage kobs at 640 uM GlcN6P” value in the data set with glucosamine-6-phosphate [1] is under 1e-05 s⁻¹. For the variant G60U U69A, the “self-cleavage kobs at 640 uM GlcN6P” value in the data set with glucosamine-6-phosphate [1] is under 1e-05 s⁻¹. For the same variant, in the data set with glucosamine-6-phosphate [2], the “self-cleavage kobs at 2500 uM GlcN6P” value was under 1e-05 s⁻¹. Further, the “self-cleavage kobs at 10000 uM GlcN6P” value in the data set with glucosamine-6-phosphate [3] was under 1e-05 s⁻¹. For A14U G29A G62A U69G, in the data set with glucosamine-6-phosphate [1], the “self-cleavage kobs at 640 uM GlcN6P” value came out at 7.37e-05 ± 2.9e-05 s⁻¹. With G29U A48U A53U G63A, in the data set with glucosamine-6-phosphate [1], the “self-cleavage kobs at 640 uM GlcN6P” value is under 1e-05 s⁻¹. Moreover, in the data set with glucosamine-6-phosphate [2], the “self-cleavage kobs at 2500 uM GlcN6P” value was under 1e-05 s⁻¹. With A33G A39C G44A C71G, the “self-cleavage kobs at 640 uM GlcN6P” value with glucosamine-6-phosphate [1] was under 1e-05 s⁻¹. In the data set with glucosamine-6-phosphate [2], the “self-cleavage kobs at 2500 uM GlcN6P” value is under 1e-05 s⁻¹.

Turning to A6U G9A C50U, the “self-cleavage kobs at 640 uM GlcN6P” value with glucosamine-6-phosphate [1] was under 1e-05 s⁻¹. Consider G7C C10A G13A A33C, for which the “self-cleavage kobs at 640 uM GlcN6P” value with glucosamine-6-phosphate [1] was under 1e-05 s⁻¹. In addition, the “self-cleavage kobs at 2500 uM GlcN6P” value with glucosamine-6-phosphate [2] was under 1e-05 s⁻¹. Moreover, the “self-cleavage kobs at 10000 uM GlcN6P” value with glucosamine-6-phosphate [3] is under 1e-05 s⁻¹. Regarding C34A G35A A42G, the “self-cleavage kobs at 640 uM GlcN6P” value with glucosamine-6-phosphate [1] was under 1e-05 s⁻¹. Further, the “self-cleavage kobs at 2500 uM GlcN6P” value in the data set with glucosamine-6-phosphate [2] is under 1e-05 s⁻¹. With G9A U55C, the “self-cleavage kobs at 640 uM GlcN6P” value with glucosamine-6-phosphate [1] is under 1e-05 s⁻¹. For the same variant, the “self-cleavage kobs at 2500 uM GlcN6P” value with glucosamine-6-phosphate [2] was under 1e-05 s⁻¹. Turning to G32U A64C C71A, the “self-cleavage kobs at 640 uM GlcN6P” value with glucosamine-6-phosphate [1] is under 1e-05 s⁻¹. For the same variant, the “self-cleavage kobs at 2500 uM GlcN6P” value with glucosamine-6-phosphate [2] was under 1e-05 s⁻¹. Regarding A6U G29U G32U A42G U47A C71G, the “self-cleavage kobs at 640 uM GlcN6P” value with glucosamine-6-phosphate [1] is under 1e-05 s⁻¹. The “self-cleavage kobs at 2500 uM GlcN6P” value in the data set with glucosamine-6-phosphate [2] is under 1e-05 s⁻¹. In the case of C16A C68G, the “self-cleavage kobs at 640 uM GlcN6P” value with glucosamine-6-phosphate [1] came out at 0.000279 ± 0.00013 s⁻¹. Moreover, the “self-cleavage kobs at 2500 uM GlcN6P” value with glucosamine-6-phosphate [2] is 3.3e-05 ± 9.2e-06 s⁻¹. On to A14G C34U U54G C58G U69G, for which the “self-cleavage kobs at 640 uM GlcN6P” value in the data set with glucosamine-6-phosphate [1] was determined as 0.000551 ± 0.0002 s⁻¹.

C11A C50G C61A: in the data set with glucosamine-6-phosphate [1], the “self-cleavage kobs at 640 uM GlcN6P” value came out at 0.000272 ± 7.9e-05 s⁻¹. The “self-cleavage kobs at 2500 uM GlcN6P” value with glucosamine-6-phosphate [2] came to 0.000188 ± 3.7e-05 s⁻¹.

On to U30C G32U A64G, for which the “self-cleavage kobs at 640 uM GlcN6P” value in the data set with glucosamine-6-phosphate [1] stood at 7.24e-05 ± 2.3e-05 s⁻¹. In the data set with glucosamine-6-phosphate [2], the “self-cleavage kobs at 2500 uM GlcN6P” value is 0.000195 ± 5.7e-05 s⁻¹. In the case of A6G A14C C34U, in the data set with glucosamine-6-phosphate [1], the “self-cleavage kobs at 640 uM GlcN6P” value is under 1e-05 s⁻¹.

With C11A U30G G32U G44A G66A, the “self-cleavage kobs at 640 uM GlcN6P” value in the data set with glucosamine-6-phosphate [1] is under 1e-05 s⁻¹. In addition, the “self-cleavage kobs at 2500 uM GlcN6P” value with glucosamine-6-phosphate [2] was under 1e-05 s⁻¹.

As to A14C A42U A64U, the “self-cleavage kobs at 640 uM GlcN6P” value with glucosamine-6-phosphate [1] is under 1e-05 s⁻¹. In addition, the “self-cleavage kobs at 2500 uM GlcN6P” value in the data set with glucosamine-6-phosphate [2] was under 1e-05 s⁻¹. With G37A A48C U55G, the “self-cleavage kobs at 640 uM GlcN6P” value with glucosamine-6-phosphate [1] is under 1e-05 s⁻¹. On to C8G A15G C16U U45G U49A, for which, in the data set with glucosamine-6-phosphate [1], the “self-cleavage kobs at 640 uM GlcN6P” value was under 1e-05 s⁻¹. Moreover, in the data set with glucosamine-6-phosphate [2], the “self-cleavage kobs at 2500 uM GlcN6P” value is under 1e-05 s⁻¹. Regarding A6U U54A, the “self-cleavage kobs at 640 uM GlcN6P” value with glucosamine-6-phosphate [1] came to 9.76e-05 ± 2e-05 s⁻¹. Besides, the “self-cleavage kobs at 2500 uM GlcN6P” value with glucosamine-6-phosphate [2] stood at 0.000837 ± 0.00027 s⁻¹. Further, the “self-cleavage kobs at 10000 uM GlcN6P” value with glucosamine-6-phosphate [3] was 0.000256 ± 4.4e-05 s⁻¹. On to G9C G40A G66U C68G, for which, in the data set with glucosamine-6-phosphate [1], the “self-cleavage kobs at 640 uM GlcN6P” value was under 1e-05 s⁻¹. On to G13U U30G G35C, for which, in the data set with glucosamine-6-phosphate [1], the “self-cleavage kobs at 640 uM GlcN6P” value is under 1e-05 s⁻¹. Also, the “self-cleavage kobs at 2500 uM GlcN6P” value in the data set with glucosamine-6-phosphate [2] is under 1e-05 s⁻¹. Also, in the data set with glucosamine-6-phosphate [3], the “self-cleavage kobs at 10000 uM GlcN6P” value is under 1e-05 s⁻¹.

Take A15G G51U G63U C68G: the “self-cleavage kobs at 640 uM GlcN6P” value with glucosamine-6-phosphate [1] amounted to 9.97e-05 ± 4.5e-05 s⁻¹. Further, the “self-cleavage kobs at 2500 uM GlcN6P” value in the data set with glucosamine-6-phosphate [2] is 0.000286 ± 0.00011 s⁻¹. With G9C A53C C70U, in the data set with glucosamine-6-phosphate [1], the “self-cleavage kobs at 640 uM GlcN6P” value was under 1e-05 s⁻¹. For the same variant, in the data set with glucosamine-6-phosphate [2], the “self-cleavage kobs at 2500 uM GlcN6P” value is under 1e-05 s⁻¹.

Turning to A36C G38C G43U U54G U56C, in the data set with glucosamine-6-phosphate [1], the “self-cleavage kobs at 640 uM GlcN6P” value was under 1e-05 s⁻¹. As to G32U A33U U56G, the “self-cleavage kobs at 640 uM GlcN6P” value in the data set with glucosamine-6-phosphate [1] was under 1e-05 s⁻¹. Turning to G7C A14C G44A G63A, the “self-cleavage kobs at 640 uM GlcN6P” value with glucosamine-6-phosphate [1] is under 1e-05 s⁻¹. Further, in the data set with glucosamine-6-phosphate [2], the “self-cleavage kobs at 2500 uM GlcN6P” value was under 1e-05 s⁻¹.
